The record followed here is patent US20170022281A1 (AbbVie / Abbott, published 2017).

The target of test [1] is T1, rat PRLR on Nb2-11 rat lymphoma cells (rat, UniProt P05710 20-610).
T1 construct: whole, on cells
T1 sequence (looked up): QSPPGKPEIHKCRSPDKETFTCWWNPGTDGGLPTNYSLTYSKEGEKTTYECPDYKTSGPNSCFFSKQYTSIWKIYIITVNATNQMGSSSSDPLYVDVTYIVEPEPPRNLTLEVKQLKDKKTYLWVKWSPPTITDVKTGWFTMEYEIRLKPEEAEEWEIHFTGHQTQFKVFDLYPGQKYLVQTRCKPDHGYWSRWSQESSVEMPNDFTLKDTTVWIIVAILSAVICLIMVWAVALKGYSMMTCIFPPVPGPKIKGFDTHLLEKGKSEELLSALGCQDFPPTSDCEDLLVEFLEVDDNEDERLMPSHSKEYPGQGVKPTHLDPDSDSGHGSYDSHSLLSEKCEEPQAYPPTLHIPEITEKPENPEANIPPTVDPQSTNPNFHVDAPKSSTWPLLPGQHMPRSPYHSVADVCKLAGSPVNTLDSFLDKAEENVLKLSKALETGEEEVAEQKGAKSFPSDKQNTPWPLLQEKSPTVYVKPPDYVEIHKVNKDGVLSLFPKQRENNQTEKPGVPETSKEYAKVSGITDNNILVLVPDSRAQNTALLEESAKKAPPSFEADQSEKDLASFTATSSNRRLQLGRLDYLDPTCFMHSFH
In words: FACS Nb2-11 20 ug/mL. How it is done: Nb2-11 and Baf3-xPRLR cells were resuspended in FACS buffer (PBS+1% FBS) at 2 millions cells/mL. Cells were added to round bottom 96-well plate (100 uL/well) and treated with testing PRLR antibodies for 1 hr at 4 C. Cells were then washed with FACS buffer twice and incubated with 2nd antibody conjugated to ALEXA488 (Invitrogen) for 1 hr at 4 C. After two washes in FACS buffer, cells were resuspended in 1% formaldehyde in PBS. Cells were analyzed using LSRII flowcytometer.

Test [2] deals with T2, human PRLR (Biacore antigen) (human, UniProt P16471 25-234, limits assumed).
T2 construct: The construct injected over captured antibody is not described (a soluble form is likely); also called huPRLR
T2 sequence: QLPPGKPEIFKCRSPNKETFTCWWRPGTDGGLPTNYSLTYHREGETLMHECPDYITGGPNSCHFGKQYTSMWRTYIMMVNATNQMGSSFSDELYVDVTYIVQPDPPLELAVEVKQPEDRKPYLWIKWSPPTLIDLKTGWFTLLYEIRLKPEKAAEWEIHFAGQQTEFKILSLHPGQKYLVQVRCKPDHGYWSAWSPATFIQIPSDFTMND
As to the kind of experiment: SPR Biacore. (In SPR one partner is held on a chip, and binding of the other changes the refractive index at the surface.)

Positions count from the first letter of the chain named.

B1: Ab12 (antibody, V domains shown)
VH: DVQLQESGPGLVKPSQSLSLTCTVTGYSITSDYAWNWIRQFPGNKLEWMGYIGYSGRTSFNPSLKSRISITRDTSKNQFFLQLNSVTTEDTATYYCARGGFAMDYWGQGTSVTVSS
VL: QIVLTQSPGIMSASPGEKVTMTCSASSSVTYMYWYQQKPRSSPKPWIYLTSNLASGVPARFSGSGSGTSYSLTISSMEAEDGATYYCQQWSSTPPLTFGGGTKLELN
notes: murine monoclonal, isotype G2a; reported as PRLR agonist; also called murine Ab12
In the case of B1, the “FACS GeoMean-neg” value in test [1] was 17.

B2: Ab6 (antibody, V domains shown)
VH: QVQLQQPGAELVMPGSSVKLSCKASGYTFTTYWMHWVKQRPGQGLEWIGEIDPSDSYSNYNQKFKDKATLTVDKSSSTAYMQLSSLTSEDSAVYYCARNGGLGPAWFSYWGQGTLVTVSA
VL: DIVMTQSQKFMSTTVGDRVSITCKASQYVGTAVAWYQQKPGQSPKLLIYSASNRYTGVPDRFTDSGSGTDFTLTISNLQSEDLADYFCQQYSSYPWTFGGGTKLEIK
notes: murine monoclonal, isotype G1; also called murine Ab6
B2: in test [1], the “FACS GeoMean-neg” value stood at 0.

B3: Ab5 (antibody, V domains shown)
VH: QVQLQQPGAELVRPGTSVKLSCKASGYTFTSFWMHWVKQRPGQGLEWIGVIDPSDTYTNYNQKFKGKATLTVDTSSSTAYMQLSSLTSEDSAVYYCARGDYSNWFTYWGQGTLVTVSA
VL: DVVMTQTPLSLPVSLGDQASISCRSSQRLVHSNGNTYLHWYLQKPGQSPKLLIYKVSNRFSGVPDRFSGSGSGTDFTLKISRVEAEDLGVYFCSQSTHVPWTFGGGTKLEIK
notes: murine monoclonal, isotype G2a; also called murine Ab5
Regarding B3, the “FACS GeoMean-neg” value in test [1] was found to be 90.

B4: Ab7 (antibody, V domains shown)
VH: QVQLQQPGAELVMPGTSVKLSCKASGYTFTSYWIHWVKQRPGQGLEWIGEIDPSDSYTNYNQKFKGKATLTVDRSSSTAYMQLSSLTSEDSAVYYCGRSFFTNWFAYWGQGTLVTVSA
VL: B3 VL with R28S, S81N, W101F, G105S
notes: murine monoclonal, isotype G1; also called murine Ab7
Take B4: the “FACS GeoMean-neg” value in test [1] stood at 82.

B5: Ab11 (antibody, V domains shown)
VH: EVKLVESGGGLVQPGGSLKLSCAASGFTFSDYYMFWVRQTPEKSLEWVAYISNGGGSTYYPDTVKGRFTISRDNAKNTLYLQMSRLKSEDTAMYYCSRQLFYYGSRGAMGYWGQGTSVTVSS
VL: B3 VL with V3L, R28S, L29I, H39E, F92Y, S94F, S96G, T97S, W101F, G105S
notes: murine monoclonal, isotype G1; also called murine Ab11
Regarding B5, the “FACS GeoMean-neg” value in test [1] worked out at 94.

B6: Ab13 (antibody, V domains shown)
VH: B3 VH with T56S, Y57H, D73N, Q82H
VL: B3 VL with L9F, R28S, G89E, V90L
notes: murine monoclonal, isotype G2a; also called murine Ab13
On to B6, for which, in test [1], the “FACS GeoMean-neg” value turned out to be 60.

B7: Ab39 (antibody, human IgG1, kappa, V domains shown)
VH: EVQLVQSGAEVKKPGSSVKVSCKASGYTFTSYWIHWVRQAPGQGLEWIGEIDPSDSYTNYNQKFKGRATLTVDKSSSTAYMELSSLRSEDTAVYYCARSFFTNWFAYWGQGTLVTVSS
VL: DVVMTQTPLSLSVTPGQPASISCRSSQSLVHSNGNTYLHWYLQKPGQSPQLLIYKVSNRFSGVPDRFSGSGSGTDFTLKISRVEAEDVGVYFCSQSTHVPFTFGGGTKVEIKR
notes: humanized from Ab7; G1; also called Ab4 HC.1a and Ab4 LC.1a
Regarding B7, the “fold decrease in affinity against chAb7” value in test [2] was around 22 fold.

B8: LFA102 (antibody, human IgG1, kappa, V domains shown)
VH: EVQLVESGGGLVQPGGSLRLSCAVSGFTFSSYGMSWVRQAPGKRLEWVATVSSGGTYTYYPDSVKGRFTISRDNSKNTLYLQMNSLRAEDTAMYYCARHRGNYYATYYYAMDYWGQGTLVTVSS
VL: DIVLTQSPDSLAVSLGERATINCKASKSVSTSGYTYMHWYQQKPGQPPKLLIYLASNRESGVPDRFSGSGSGTDFTLTISPVQAEDVATYYCQHSGELPPSFGQGTKLEIKR
notes: humanized IgG1 kappa comparator (WO 2008022295)
On to B8, for which the “FACS GeoMean-neg” value in test [1] was 98.

B9: Ab10 (antibody, V domains shown)
VH: EVQLHQSGPELVKPGASVKISCKASGYTFTDYNMHWMKQSHGKSLEWIGYFYPYNGGTGYNQEFKNKATLTVDISSSTAYMELRRLTSEDSAVYYCARGGWGIYYAMDYWGQGTSVTVSS
VL: DIQMTQSPASLSASVGETVTITCRASENIYSYLTWYQQKQGKSPQLLVYNAKTLAEGVPSRFSGSGSGTQFSLKINSLQPEDFGSYHCQHHSVTPLTFGAGTKLELK
notes: murine monoclonal, isotype G2a; also called murine Ab10
On to B9, for which the “FACS GeoMean-neg” value in test [1] stood at 16.
